Assay results as given in patent US20260285962 (published 2026).
Changes are numbered by the printed parent chain.

T1: Human Activin A-Fc (human)
T1 chain: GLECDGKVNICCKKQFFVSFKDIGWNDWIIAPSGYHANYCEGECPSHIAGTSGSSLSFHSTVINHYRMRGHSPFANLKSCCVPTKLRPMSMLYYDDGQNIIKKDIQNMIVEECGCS

T2: BMP9 (UniProt Q9UK05)
T2 chain: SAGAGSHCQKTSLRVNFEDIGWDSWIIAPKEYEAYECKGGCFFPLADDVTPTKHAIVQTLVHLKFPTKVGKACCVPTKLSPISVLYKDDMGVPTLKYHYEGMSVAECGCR

T3: Human GDNF (human, UniProt P39905)
T3 chain: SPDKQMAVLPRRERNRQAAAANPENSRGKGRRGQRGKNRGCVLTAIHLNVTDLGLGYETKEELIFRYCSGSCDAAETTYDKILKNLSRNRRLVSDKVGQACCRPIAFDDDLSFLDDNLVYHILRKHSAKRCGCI

T4: Human GDF10 (human, UniProt P55107)
T4 chain: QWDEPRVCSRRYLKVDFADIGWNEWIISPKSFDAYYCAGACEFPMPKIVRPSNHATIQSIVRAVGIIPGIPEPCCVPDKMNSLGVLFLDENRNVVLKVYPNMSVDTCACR

T5: Human GDF11 (human, UniProt O95390)
T5 chain: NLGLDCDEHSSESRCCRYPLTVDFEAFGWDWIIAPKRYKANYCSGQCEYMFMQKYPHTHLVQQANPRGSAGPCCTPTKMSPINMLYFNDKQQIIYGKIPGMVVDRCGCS

T6: Human Activin B (human)
T6 chain: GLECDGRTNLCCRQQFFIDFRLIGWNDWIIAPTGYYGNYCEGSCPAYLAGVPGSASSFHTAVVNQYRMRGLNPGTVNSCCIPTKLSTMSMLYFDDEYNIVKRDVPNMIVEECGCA

T7: BMP10 (UniProt O95393)
T7 chain: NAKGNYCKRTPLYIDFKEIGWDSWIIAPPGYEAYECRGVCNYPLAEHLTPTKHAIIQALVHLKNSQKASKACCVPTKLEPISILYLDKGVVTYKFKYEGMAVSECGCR

T8: Human Follistatin 300 (human, UniProt P19883)
T8 chain: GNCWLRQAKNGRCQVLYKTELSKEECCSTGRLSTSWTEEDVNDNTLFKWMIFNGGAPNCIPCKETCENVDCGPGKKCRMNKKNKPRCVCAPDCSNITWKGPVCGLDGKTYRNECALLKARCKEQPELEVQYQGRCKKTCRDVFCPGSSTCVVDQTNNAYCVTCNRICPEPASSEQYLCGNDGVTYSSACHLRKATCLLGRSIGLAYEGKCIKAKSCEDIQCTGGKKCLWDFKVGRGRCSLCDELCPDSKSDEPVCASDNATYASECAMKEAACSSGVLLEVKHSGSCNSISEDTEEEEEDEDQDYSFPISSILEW

T9: GDF15-Fc (UniProt Q99988)
T9 chain: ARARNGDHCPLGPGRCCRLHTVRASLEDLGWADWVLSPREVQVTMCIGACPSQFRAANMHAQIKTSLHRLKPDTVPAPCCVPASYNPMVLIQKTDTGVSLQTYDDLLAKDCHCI

T10: Human Activin A (biotinylated) (human)
T10 chain: T1 chain

B1: Clone B IgG (antibody, V domains shown)
VH: QLQLQESGPGLVKPSETLSLTCTVSGGSISSQQYYWGWIRQPPGKGLEWIGSISYAASTYYNPSLKSRVTISVDTSKNQFSLKLSSVTAADTAVYYCAREGYDSYSYDVWGQGTMVTVSS
VL: EIVLTQSPATLSVSPGERATLSCRASQSVGSNLAWYQQKPGQAPRLLIYGASTRATGIPARFSGSGSGTEFTLTISSLQSEDFAVYYCQQYNFYPPITFGGGTKVEIK
B2: Clone B Fab (antibody, V domains shown)
VH: B1 VH
VL: B1 VL
B3: Clone A Fab (antibody, V domains shown)
VH: B1 VH with Q32S, Q33S, A56S, A57G
VL: B1 VL
B4: Clone A IgG (antibody, V domains shown)
VH: B1 VH with Q32S, Q33S, A56S, A57G
VL: B1 VL
B5: Clone C IgG (antibody, V domains shown)
VH: QLQLQESGPGLVKPSETLSLTCTVSGGSISSYDPYWGWIRQPPGKGLEWIGSISYSGSTLYNPSLKSRVTISVDTSKNQFSLKLSSVTAADTAVYYCAREVSYLGSRRYGMDVWGQGTTVTVSS
VL: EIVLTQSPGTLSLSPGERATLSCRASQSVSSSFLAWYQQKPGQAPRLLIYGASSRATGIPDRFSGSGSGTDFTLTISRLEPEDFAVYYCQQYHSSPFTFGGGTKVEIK
B6: Clone C Fab (antibody, V domains shown)
VH: B5 VH
VL: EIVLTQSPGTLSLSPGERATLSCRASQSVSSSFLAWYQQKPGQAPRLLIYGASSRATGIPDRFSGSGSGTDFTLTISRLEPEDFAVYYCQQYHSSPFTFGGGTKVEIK

Key:
[1] = target: T1, Human Activin A-Fc; assay: BLI, bivalent
[2] = target: Human GDF8 (human, UniProt O14793); assay: BLI, bivalent
[3] = target: T2, BMP9; assay: BLI, bivalent
[4] = target: T3, Human GDNF; assay: BLI, bivalent
[5] = target: T4, Human GDF10; assay: BLI, bivalent
[6] = target: T5, Human GDF11; assay: BLI, bivalent
[7] = target: T6, Human Activin B; assay: BLI, bivalent
[8] = target: T7, BMP10; assay: BLI, bivalent
[9] = target: T8, Human Follistatin 300; assay: BLI, bivalent
[10] = target: T9, GDF15-Fc; assay: BLI, bivalent
[11] = target: T1, Human Activin A-Fc; assay: BLI, monovalent
[12] = target: T10, Human Activin A (biotinylated); assay: SPR, 25C, monovalent
[13] = target: T4, Human GDF10; assay: BLI, bivalent
[14] = target: T5, Human GDF11; assay: BLI, bivalent

Human GDF8, sequence (O14793 267-375): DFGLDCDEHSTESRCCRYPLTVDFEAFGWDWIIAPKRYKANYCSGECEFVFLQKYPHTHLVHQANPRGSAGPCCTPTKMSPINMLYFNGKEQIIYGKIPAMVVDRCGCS

Binder | Kd [1] [nM] | binding result [2] | binding result [3] | binding result [4] | binding result [5] | binding result [6] | Kd [7] [nM] | binding result [8] | binding result [9] | binding result [10] | Kd [11] [nM] | Kd [12] [nM] | Kd [13] [nM] | Kd [14] [nM]
B1 | 0.545 | no binding | no binding | no binding | no binding | no binding | 0.766 | no binding | no binding | no binding |  |  |  | 
B2 |  |  |  |  |  |  |  |  |  |  | 2.1 | 0.903 |  | 
B3 |  |  |  |  |  |  |  |  |  |  | 3.55 | 1.64 |  | 
B4 | 0.661 | no binding | no binding | no binding | no binding | no binding | 0.76 | no binding | no binding | no binding |  |  |  | 
B5 | 0.552 | no binding | no binding | no binding |  |  | 0.861 | no binding | no binding | no binding |  |  | 25.8 | 8.41
B6 |  |  |  |  |  |  |  |  |  |  | 0.963 | 0.0832 |  | 
